This assay has as its target T1, bacterially purified His-tagged hemagglutinin (HA)-PKM2 (human, UniProt P14618 1-531).
T1 construct: pyruvate kinase 2 (PKM2), human; also called His-HA-PKM2
The assay is described as follows: pull-down. The settings on record: both partners purified.

T1 sequence (P14618 whole entry): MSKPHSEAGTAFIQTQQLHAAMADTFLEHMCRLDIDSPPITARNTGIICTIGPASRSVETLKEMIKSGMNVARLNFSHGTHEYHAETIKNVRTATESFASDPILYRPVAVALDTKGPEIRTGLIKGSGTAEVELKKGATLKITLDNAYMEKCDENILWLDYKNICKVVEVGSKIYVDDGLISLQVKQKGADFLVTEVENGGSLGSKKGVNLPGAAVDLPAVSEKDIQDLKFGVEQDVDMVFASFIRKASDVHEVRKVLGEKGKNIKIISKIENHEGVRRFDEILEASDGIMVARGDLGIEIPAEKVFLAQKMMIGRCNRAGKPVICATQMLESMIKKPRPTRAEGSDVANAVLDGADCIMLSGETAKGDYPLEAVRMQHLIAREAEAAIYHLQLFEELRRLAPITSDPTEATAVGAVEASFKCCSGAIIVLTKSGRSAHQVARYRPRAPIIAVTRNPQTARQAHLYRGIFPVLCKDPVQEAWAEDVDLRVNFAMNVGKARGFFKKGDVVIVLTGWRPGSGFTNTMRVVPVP

B1: bacterially purified GST-tagged Sp100A (natural protein)
chain: not shown
notes: Sp100A, isoform A of human Sp100; also called GST-Sp100A
As for B1, the binding result is given as “binds”.

(Values after article PMC9765618, “PML Body Component Sp100A Is a Cytosolic Responder to IFN and Activator of Antiviral ISGs” (mBio, 2022).)
